Data reported in patent US20090325259A1, “USE OF ADHESION MOLECULES AS BOND STRESS-ENHANCED NANOSCALE BINDING SWITCHES” (priority 2002, published 2009).

Tests used:
[1] = tested on: guinea pig red blood cells (RBCs); experiment: Parallel plate flow chamber, RBCs on carpet of FimH-expressing E. coli; format: cell-based; conditions: low shear, 0.01 to 0.14 dynes/cm^2
Procedure: Bacteria-coated dishes were prepared as follows: 35 mm tissue culture dishes were incubated with 20 μg/ml RNAse B in 0.02 M bicarbonate buffer for 1 hr at 37° C. and washed three times in PBS with 0.1% BSA (PBS-BSA). The dishes were then incubated with 200 μl PBS-BSA containing 108 colony-forming units of E. coli for 1 hr at 37° C. and washed three times. […] The dishes were then placed under a Glycotech parallel plate flow chamber with a size B gasket (2.5 cm×0.25 cm×250 μm) and sealed with vacuum. A Harvard model #975 pulse-free syringe pump was used to pump fluid through the chamber. […]
RBC movement was recorded using phase contrast microscopy with a 20× objective, a CCD camera, and Metamorph video imaging software by Universal Imaging. Videos were recorded at 1 frame every 2 s for a total of 3 min at each shear rate. […] The average velocity for each cell was calculated from these positions over the 3 min at each shear. […] We only analyzed cells that were attached and in the field of view at the start of the 3 min time frame. The off-rate of RBCs was calculated from the X, the percent of original RBCs remaining bound at time t, using the formula k=1/t·ln(1/X), and using t=3 min. […]

[2] = tested on: bovine RNAse B (trimannose); experiment: Bacterial adhesion to bovine RNAse B-coated microplate (trimannose), static; format: binding; conditions: mutations in FimH-j96 and FimH-f18
Procedure: (§1) Assays of bacterial adhesion to Man1-BSA and bovine RNAseB immobilized in 96-well plates were carried out as described previously (Sokurenko et al., 1995). Briefly, Man1-BSA and bovine RNAseB were dissolved at 20 μg/ml in 0.02 M bicarbonate buffer, and 100 μl aliquots were incubated in microtiter wells for 1 hr at 37° C. The wells were then washed three times with PBS and quenched with 0.1% BSA in PBS. 3H-thymidine-labeled bacteria were added in 0.1% BSA in PBS and incubated for 40 min at 37° C. without shaking to achieve saturation, and the wells were then washed with PBS. The individual wells were subjected to scintillation counting. The density of bacteria used in all assays was 5×10^7 colony forming units per 100 μl. RBC rosette-formation assay was performed by mixing equal amounts of serially diluted bacterial suspensions (starting from OD540 nm=1.0) and a 1% suspension of RBC in U-bottom microtiter plate wells. On-slide agglutination assays were performed by mixing the suspension of RBC and bacteria on a slide surface followed by rocking at ˜3 s^−1.

[3] = tested on: guinea pig red blood cells (RBCs); experiment: RBC rosette-formation assay (static agglutination); format: cell-based; conditions: static rosette-formation assay
Procedure: as §1
Two commonly used RBC agglutination assays were performed that utilize different shear conditions. […] If no agglutination occurs, RBCs fall into a pellet in the bottom of the well (FIG. 15A), while agglutination results in a rosette of RBCs crosslinked by bacteria. […]

B1: FimH-j96-Q32L:S124A: FimH-j96 with combined Q32L and S124A mutations in the loop regions near the linker chain (protein)
chain: FACKTANGTAIPIGGGSANVYVNLAPAVNVGLNLVVDLSTQIFCHNDYPETITDYVTLQRGSAYGGVLSSFSGTVKYNGSSYPFPTTSETPRVVYNSRTDKPWPVALYLTPVSSAGGVAIKAGALIAVLILRQTNNYNSDDFQFVWNIYANNDVVVPTGGCDVSARDVTVTLPDYPGSVPIPLTVYCAKSQNLGYYLSGTTADAGNSIFTNTASFSPAQGVGVQLTRNGTIIPANNTVSLGAVGTSAVSLGLTANYARTGGQVTAGNVQSIIGVTFVYQ
- Adhesion of RBCs to bacterial carpet under low shear [1]: moved much more under low shear stress than those on FimH-j96

B2: V156P: point mutation V156P engineered into the FimH-j96 and FimH-f18 variants (protein)
chain: FACKTANGTAIPIGGGSANVYVNLAPAVNVGQNLVVDLSTQIFCHNDYPETITDYVTLQRGSAYGGVLSSFSGTVKYNGSSYPFPTTSETPRVVYNSRTDKPWPVALYLTPVSSAGGVAIKAGSLIAVLILRQTNNYNSDDFQFVWNIYANNDVVPPTGGCDVSARDVTVTLPDYPGSVPIPLTVYCAKSQNLGYYLSGTTADAGNSIFTNTASFSPAQGVGVQLTRNGTIIPANNTVSLGAVGTSAVSLGLTANYARTGGQVTAGNVQSIIGVTFVYQ
- Trimannose binding function of point mutants (in words) [2]: entirely conserved

B3: FimH-f18-V156P: FimH-f18 with the V156P point mutation in the linker chain (protein)
chain: FACKTANGTAIPIGGGSANVYVNLAPAVNVGQNLVVDLSTQIFCHNDYPETITDYVTLQRGSAYGGVLSSFSGTVKYNGSSYPFPTTSETPRVVYNSRTDKPWPVALYLTPVSSAGGVAIKAGSLIAVLILRQTNNYNSDDFQFVWNIYANNDVVPPTGGCDVSARDVTVTLPDYPGSVPIPLTVYCAKSQNLGYYLSGTTADAGNSIFTNTASFSPAQGVGVQLTRNGTIIPANNTVSLGAVGTSAVSLGLTANYARTGGQVTAGNVQSIIGVTFVYQ
- RBC agglutination under static conditions (in words) [3]: significantly better than the corresponding wild-types
- Adhesion of RBCs to bacterial carpet under low shear [1]: dramatically stronger adhesion under low shear than did the FimH-f18 parent

B4: V154P: point mutation V154P engineered into the FimH-j96 and FimH-f18 variants (protein)
chain: FACKTANGTAIPIGGGSANVYVNLAPAVNVGQNLVVDLSTQIFCHNDYPETITDYVTLQRGSAYGGVLSSFSGTVKYNGSSYPFPTTSETPRVVYNSRTDKPWPVALYLTPVSSAGGVAIKAGSLIAVLILRQTNNYNSDDFQFVWNIYANNDPVVPTGGCDVSARDVTVTLPDYPGSVPIPLTVYCAKSQNLGYYLSGTTADAGNSIFTNTASFSPAQGVGVQLTRNGTIIPANNTVSLGAVGTSAVSLGLTANYARTGGQVTAGNVQSIIGVTFVYQ
- Trimannose binding function of point mutants (in words) [2]: entirely conserved

B5: V155P: point mutation V155P engineered into the FimH-j96 and FimH-f18 variants (protein)
chain: FACKTANGTAIPIGGGSANVYVNLAPAVNVGQNLVVDLSTQIFCHNDYPETITDYVTLQRGSAYGGVLSSFSGTVKYNGSSYPFPTTSETPRVVYNSRTDKPWPVALYLTPVSSAGGVAIKAGSLIAVLILRQTNNYNSDDFQFVWNIYANNDVPVPTGGCDVSARDVTVTLPDYPGSVPIPLTVYCAKSQNLGYYLSGTTADAGNSIFTNTASFSPAQGVGVQLTRNGTIIPANNTVSLGAVGTSAVSLGLTANYARTGGQVTAGNVQSIIGVTFVYQ
- Trimannose binding function of point mutants (in words) [2]: entirely conserved

B6: FimH-j96-V156P: FimH-j96 with the V156P point mutation in the linker chain (protein)
chain: FACKTANGTAIPIGGGSANVYVNLAPAVNVGQNLVVDLSTQIFCHNDYPETITDYVTLQRGSAYGGVLSSFSGTVKYNGSSYPFPTTSETPRVVYNSRTDKPWPVALYLTPVSSAGGVAIKAGSLIAVLILRQTNNYNSDDFQFVWNIYANNDVVPPTGGCDVSARDVTVTLPDYPGSVPIPLTVYCAKSQNLGYYLSGTTADAGNSIFTNTASFSPAQGVGVQLTRNGTIIPANNTVSLGAVGTSAVSLGLTANYARTGGQVTAGNVQSIIGVTFVYQ
- RBC agglutination under static conditions (in words) [3]: significantly better than the corresponding wild-types
